What was measured:
[1] = target: HIV-1 Gag polyprotein, uncleaved, in immature virus particles (MA domain of Gag) (HIV-1); assay: cryo-EM structure
[2] = target: HIV-1 matrix protein (MA), cleaved, in mature cHIV particles (HIV-1); assay: cryo-EM structure

Substance	stoichiometry N [1]	stoichiometry N [2]
HIV-1 Gag polyprotein, uncleaved, in immature virus particles (MA domain of Gag) (natural protein)	3	–
HIV-1 matrix protein (MA), cleaved, in mature cHIV particles (natural protein)	–	3

— paper PMC7611776
